Patent US20260209383A1, “SITE-[…] […] ANTIBODY DRUG CONJUGATES” (SEAGEN INC., priority 2022, published 2026)

What was measured:
BxPC-3 cells = experiment: In vitro cytotoxicity assay (CellTiter-Glo), BxPC-3; format: cell-based
Protocol: (§1) In vitro cytotoxicity assay: The cytotoxic effect of an EC4-based ADC was measured by a cell proliferation assay employing the protocol in the Promega Corp. Technical Bulletin TB288; and Mendoza et a1., 2002, Cancer Res. 62:5485-5488), the methods of which are specifically incorporated by reference herein. Briefly, an aliquot of 40 μl of cell culture containing about 400 cells in medium was deposited in each well of a 384-well, opaque-walled plate. A 10 μL aliquot of free cytotoxic agent or ADC was added to the experimental wells and incubated for 96 hr and then incubated at room temperature for approximately 30 mins whereupon a volume of CellTiter-Glo™ reagent equal to the volume of cell culture medium present in each well was added. The contents were mixed for 2 mins on an orbital shaker to induce cell lysis and the plate was incubated at room temperature for 10 mins to stabilize the luminescence signal for recordation.
Anti-ITGB6 ADCs were tested for potency. The antibodies were engineered with the cysteine pairs disclosed above in the previous Examples. The efficacy of anti-ITGB6 EC4 ADCs were also tested against conventional anti-ITGB6 ADCs. The cells were treated with conventional or EC4 ADCs, then the remaining cells were counted to assess the cytotoxic effects of each EC4 variant compared to conventional ADCs. […] Cytotoxicity in BxPC-3 cells increased when the cells were treated with greater than 50 ng/mL of the positive control, conventional anti-ITGB6 ADCs (h2A2-mc-vc-MMAE). […] Both h2A2-mc-vc-MMAE and h2A2 S400C S114C-mc-vc-MMAE were cytotoxic to HPAFII cells when greater than 10 ng/mL ADC were used on the cells.

HPAFII cells = experiment: In vitro cytotoxicity assay (CellTiter-Glo), HPAFII; format: cell-based
Protocol: as §1
Anti-ITGB6 ADCs were tested for potency. The antibodies were engineered with the cysteine pairs disclosed above in the previous Examples. The efficacy of anti-ITGB6 EC4 ADCs were also tested against conventional anti-ITGB6 ADCs. The cells were treated with conventional or EC4 ADCs, then the remaining cells were counted to assess the cytotoxic effects of each EC4 variant compared to conventional ADCs. […]

B1: h2A2-mc-vc-MMAE(4): conventional anti-ITGB6 ADC, h2A2 without engineered cysteines conjugated with mc-vc-MMAE; positive control (conjugate)
VH: QFQLVQSGAEVKKPGASVKVSCKASGYSFTDYNVNWVRQAPGQGLEWIGVINPKYGTTRYNQKFKGRATLTVDKSTSTAYMELSSLRSEDTAVYYCTRGLNAWDYWGQGTLVTVSS
VL: DIQMTQSPSSLSASVGDRVTITCGASENIYGALNWYQQKPGKAPKLLIYGATNLEDGVPSRFSGSGSGRDYTFTISSLQPEDIATYYCQNVLTTPYTFGQGTKLEIK
BxPC-3 cells; BXPC3
  % viability at top concentration: 36%
BxPC-3 cells; BXPC3, 96 hr
  x50: 251 ng/mL
BxPC-3 cells; BxPC-3 cells
  ADC concentration above which cytotoxicity increased: greater than 50 ng/mL
HPAFII cells
  % viability at top concentration: 35%
HPAFII cells; 96 hr
  x50: 199 ng/mL
